# Test results published in patent US20200087364A1 (IMMATICS BIOTECHNOLOGIES, published 2020).
# Target: T1, HLA-A*01:01 (human)
# T1 construct: MHC class I monomer first loaded with a UV-sensitive peptide (not identified) that is cleaved by UV irradiation and exchanged for the tested peptide; captured on streptavidin plates, detected with anti-β2m; also called peptide-receptive MHC molecules
# Experiment: UV-ligand exchange, anti-b2m ELISA
# Description: Candidate peptides for T cell based therapies according to the present invention were further tested for their MHC binding capacity (affinity). The individual peptide-MHC complexes were produced by UV-ligand exchange, where a UV-sensitive peptide is cleaved upon UV-irradiation and exchanged with the peptide of interest as analyzed. Only peptide candidates that can effectively bind and stabilize the peptide-receptive MHC molecules prevent dissociation of the MHC complexes. To determine the yield of the exchange reaction, an ELISA was performed based on the detection of the light chain (β2m) of stabilized MHC complexes. The assay was performed as generally described in Rodenko et al. (Rodenko et al., 2006)
# 96 well MAXISorp plates (NUNC) were coated over night with 2 ug/ml streptavidin in PBS at room temperature, washed 4× and blocked for 1 h at 37° C. in 2% BSA containing blocking buffer. Refolded HLA-A*02:01/MLA-001 monomers served as standards, covering the range of 15-500 ng/ml. Peptide-MHC monomers of the UV-exchange reaction were diluted 100-fold in blocking buffer. Samples were incubated for 1 h at 37° C., washed four times, incubated with 2 ug/ml HRP conjugated anti-β2m for 1 h at 37° C., washed again and detected with TMB solution that is stopped with […]. Absorption was measured at 450 nm.
row,Binder,peptide exchange yield
1,KLAGTVFQY,20 to 50%
2,VSVYNSYPY,20 to 50%
3,YHRICELLSDY,> 75%
4,RAVQPGETY,50 to 75%
5,VQPGETYTY,50 to 75%
6,TVDNANILL,20 to 50%
7,VQIAKGMNY,50 to 75%
8,ITDFGLAKL,20 to 50%
9,FSEPFHLIV,50 to 75%
10,ASWAVLCYY,50 to 75%
11,QSTTGVSHY,50 to 75%
12,TSEVEGLAFVSY,50 to 75%
13,GLEYEAPKLY,20 to 50%
14,HTDLESPSAVY,50 to 75%
15,LVDGKWQEF,20 to 50%
16,TQRTSFQFY,20 to 50%
17,SSTDFTFASW,10 to 20%
18,AQISDTGRY,20 to 50%
19,SVTDLIGGKW,20 to 50%
20,TQPELSSRY,20 to 50%
21,RSDPVSLRY,> 75%
22,LADTDLGMTF,20 to 50%
23,KTIQEVAGY,20 to 50%

row,Binder,peptide exchange yield
1,NSDESADSEPHKY,> 75%
2,AVSSGLFFY,20 to 50%
3,TQKSVQVLAY,20 to 50%
4,DIPDYLLQY,50 to 75%
5,FRGVFVHRY,20 to 50%
6,VSSTVHNLY,> 75%
7,FTRAFDQLRM,50 to 75%
8,LAFYYGMY,20 to 50%
9,LTEGHSGNY,> 75%
10,SQNGQLIHY,50 to 75%
11,CYTADNEMGY,50 to 75%
12,YTADNEMGYY,50 to 75%
13,RLAQYTIERY,20 to 50%
14,NDEIDKLTGY,> 75%
15,KLTDYINANY,20 to 50%
16,LCAAVLAKY,20 to 50%
17,SLPEFGLTY,20 to 50%
18,SLPEFGLTYY,20 to 50%
19,QTDINGGSLK,50 to 75%
20,VDPIGHLY,20 to 50%
21,LSAQHRMLA,20 to 50%
22,LSQDELSKF,20 to 50%
23,NVKEAPTEY,20 to 50%

row,Binder,peptide exchange yield
1,RMQEGSEVY,20 to 50%
2,LLEGEDAHLTQY,50 to 75%
3,LLISKAEDY,20 to 50%
4,EADPFLKYL,20 to 50%
5,LLEADPFLKY,> 75%
6,YLNEWGSRF,20 to 50%
7,MMTDLTSVY,50 to 75%
8,VSDSTTEITY,50 to 75%
9,LSSAVNPIIY,20 to 50%
10,VQDPSLPVY,20 to 50%
11,DTLEAATSLY,20 to 50%
12,NSMLDPLVY,> 75%
13,LMDEGAVLTL,20 to 50%
14,FTAQLQLY,50 to 75%
15,KTELETALYY,50 to 75%
16,DVERIKDTY,20 to 50%
17,TDVERIKDTY,50 to 75%
18,GSPDAVVSY,10 to 20%
19,NAVDVVPSSF,10 to 20%
20,VMDTLGLFY,> 75%
21,RTDEGDNRVW,20 to 50%
22,STDPNIVRK,50 to 75%
